Test results as given in patent US7601333B2, “Use of a tetrapeptide AcSDKP (SEQ ID No. 1) analog resistant to the angiotensin I converting enzyme for measuring glomerular filtration rate in a human or an animal and kit containing same” (Assistance Publique-Hopitaux de Paris, priority 2003, dated 2009).
No end group written: not given here.

T1: rat lung ACE (angiotensin I converting enzyme in ground rat lung material) (rat, UniProt P47820 36-1313, limits assumed)
T1 sequence (looked up): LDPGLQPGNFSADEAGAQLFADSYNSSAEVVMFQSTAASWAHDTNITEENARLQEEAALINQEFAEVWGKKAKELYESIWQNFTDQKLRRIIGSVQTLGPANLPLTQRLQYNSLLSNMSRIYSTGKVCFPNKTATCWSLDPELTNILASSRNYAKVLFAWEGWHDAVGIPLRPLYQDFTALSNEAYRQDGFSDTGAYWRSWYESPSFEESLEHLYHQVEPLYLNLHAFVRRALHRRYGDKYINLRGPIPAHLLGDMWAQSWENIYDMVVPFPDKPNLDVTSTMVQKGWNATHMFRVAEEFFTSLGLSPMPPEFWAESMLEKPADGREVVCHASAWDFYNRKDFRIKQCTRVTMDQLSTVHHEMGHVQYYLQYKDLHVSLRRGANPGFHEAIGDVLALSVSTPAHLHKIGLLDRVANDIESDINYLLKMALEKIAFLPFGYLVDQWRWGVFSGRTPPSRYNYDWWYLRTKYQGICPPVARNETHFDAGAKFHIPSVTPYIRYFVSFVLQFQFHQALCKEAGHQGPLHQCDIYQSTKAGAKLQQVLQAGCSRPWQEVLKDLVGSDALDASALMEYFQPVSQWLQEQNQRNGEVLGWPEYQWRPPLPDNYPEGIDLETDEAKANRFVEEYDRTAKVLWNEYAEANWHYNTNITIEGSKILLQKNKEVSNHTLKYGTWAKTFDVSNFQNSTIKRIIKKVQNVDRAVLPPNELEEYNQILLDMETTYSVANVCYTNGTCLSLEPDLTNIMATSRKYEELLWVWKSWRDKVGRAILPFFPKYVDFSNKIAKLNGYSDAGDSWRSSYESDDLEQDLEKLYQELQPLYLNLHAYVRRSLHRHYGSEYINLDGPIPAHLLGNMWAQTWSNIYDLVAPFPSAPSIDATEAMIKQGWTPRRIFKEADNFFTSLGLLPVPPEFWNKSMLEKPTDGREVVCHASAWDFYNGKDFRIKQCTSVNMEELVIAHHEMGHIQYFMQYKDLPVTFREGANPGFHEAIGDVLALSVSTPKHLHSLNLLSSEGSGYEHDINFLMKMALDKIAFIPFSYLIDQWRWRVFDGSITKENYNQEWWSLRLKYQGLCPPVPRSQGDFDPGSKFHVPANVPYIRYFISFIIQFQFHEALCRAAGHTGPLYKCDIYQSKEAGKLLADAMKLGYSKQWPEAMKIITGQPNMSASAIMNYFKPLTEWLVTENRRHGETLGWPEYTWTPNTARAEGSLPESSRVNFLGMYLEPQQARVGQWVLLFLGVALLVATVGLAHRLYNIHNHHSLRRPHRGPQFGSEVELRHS


Key:
[1] = biological target: T1, rat lung ACE (angiotensin I converting …); assay: cell-based or functional assay
[2] = biological target: human converting enzyme (human ACE) (human, UniProt P12821 30-1306, limits assumed); assay: cell-based or functional assay

| Binder | in vitro degradation: % of peptide assayed relative to the control (enzyme immunoassay), T30 min, no captopril [1] [%] | in vitro degradation: % of peptide assayed relative to the control (enzyme immunoassay), T30 min, with captopril 10 uM [1] [%] | in vitro degradation: % of peptide assayed relative to the control (enzyme immunoassay), T60 min, no captopril [1] [%] | in vitro degradation: % of peptide assayed relative to the control (enzyme immunoassay), T60 min, with captopril 10 uM [1] [%] | in vitro degradation: % of peptide assayed relative to the control (enzyme immunoassay), T120 min, no captopril [1] [%] | in vitro degradation: % of peptide assayed relative to the control (enzyme immunoassay), T120 min, with captopril 10 uM [1] [%] | in vitro degradation: % of peptide assayed relative to the control (enzyme immunoassay), T240 min, no captopril [1] [%] | in vitro degradation: % of peptide assayed relative to the control (enzyme immunoassay), T240 min, with captopril 10 uM [1] [%] | in vitro degradation: % of peptide assayed relative to the control (enzyme immunoassay), T10 min, no captopril [2] [%] | in vitro degradation: % of peptide assayed relative to the control (enzyme immunoassay), T10 min, with captopril 10 uM [2] [%] | in vitro degradation: % of peptide assayed relative to the control (enzyme immunoassay), T30 min, no captopril [2] [%] | in vitro degradation: % of peptide assayed relative to the control (enzyme immunoassay), T30 min, with captopril 10 uM [2] [%] | in vitro degradation: % of peptide assayed relative to the control (enzyme immunoassay), T60 min, no captopril [2] [%] | in vitro degradation: % of peptide assayed relative to the control (enzyme immunoassay), T60 min, with captopril 10 uM [2] [%] | in vitro degradation: % of peptide assayed relative to the control (enzyme immunoassay), T120 min, no captopril [2] [%] | in vitro degradation: % of peptide assayed relative to the control (enzyme immunoassay), T120 min, with captopril 10 uM [2] [%] | in vitro degradation: % of peptide assayed relative to the control (enzyme immunoassay), T240 min, no captopril [2] [%] | in vitro degradation: % of peptide assayed relative to the control (enzyme immunoassay), T240 min, with captopril 10 uM [2] [%] | in vitro degradation: % of peptide assayed relative to the control (enzyme immunoassay), T1440 min, no captopril [2] [%] | in vitro degradation: % of peptide assayed relative to the control (enzyme immunoassay), T1440 min, with captopril 10 uM [2] [%] |
| --- | --- | --- | --- | --- | --- | --- | --- | --- | --- | --- | --- | --- | --- | --- | --- | --- | --- | --- | --- | --- |
| Ac-SDKP [N-acetyl-Ser-Asp-Lys-Pro (AcSDKP)] | 28 | 129 | 9 | 111 | 5 | 75 | 5 | 89 | 82 | 90 | 75 | 100 | 50 | 85 | 25 | 85 | 7 | 100 |  |  |
| Ac-SDKP-NH2 [N-acetyl-Ser-Asp-Lys-Pro-NH2 (AcSDKP-NH2)] | 100 | 125 | 65 | 65 | 95 | 109 | 126 | 136 | 79 | 90 | 100 | 162 | 116 | 78 | 116 | 95 | 107 | 104 | 86 | 117 |
